# From IntAct's records for PubMed 21905166
# B1: Rab proteins geranylgeranyltransferase component A 1 (Homo sapiens), P24386 (parent)
# chain: MADTLPSEFDVIVIGTGLPESIIAAACSRSGRRVLHVDSRSYYGGNWASFSFSGLLSWLKEYQENSDIVSDSPVWQDQILENEEAIALSRKDKTIQHVEVFCYASQDLHEDVEEAGALQKNHALVTSANSTEAADSAFLPTEDESLSTMSCEMLTEQTPSSDPENALEVNGAEVTGEKENHCDDKTCVPSTSAEDMSENVPIAEDTTEQPKKNRITYSQIIKEGRRFNIDLVSKLLYSRGLLIDLLIKSNVSRYAEFKNITRILAFREGRVEQVPCSRADVFNSKQLTMVEKRMLMKFLTFCMEYEKYPDEYKGYEEITFYEYLKTQKLTPNLQYIVMHSIAMTSETASSTIDGLKATKNFLHCLGRYGNTPFLFPLYGQGELPQCFCRMCAVFGGIYCLRHSVQCLVVDKESRKCKAIIDQFGQRIISEHFLVEDSYFPENMCSRVQYRQISRAVLITDRSVLKTDSDQQISILTVPAEEPGTFAVRVIELCSSTMTCMKGTYLVHLTCTSSKTAREDLESVVQKLFVPYTEMEIENEQVEKPRILWALYFNMRDSSDISRSCYNDLPSNVYVCSGPDCGLGNDNAVKQAETLFQEICPNEDFCPPPPNPEDIILDGDSLQPEASESSAIPEANSETFKESTNLGNLEESSE
# partner: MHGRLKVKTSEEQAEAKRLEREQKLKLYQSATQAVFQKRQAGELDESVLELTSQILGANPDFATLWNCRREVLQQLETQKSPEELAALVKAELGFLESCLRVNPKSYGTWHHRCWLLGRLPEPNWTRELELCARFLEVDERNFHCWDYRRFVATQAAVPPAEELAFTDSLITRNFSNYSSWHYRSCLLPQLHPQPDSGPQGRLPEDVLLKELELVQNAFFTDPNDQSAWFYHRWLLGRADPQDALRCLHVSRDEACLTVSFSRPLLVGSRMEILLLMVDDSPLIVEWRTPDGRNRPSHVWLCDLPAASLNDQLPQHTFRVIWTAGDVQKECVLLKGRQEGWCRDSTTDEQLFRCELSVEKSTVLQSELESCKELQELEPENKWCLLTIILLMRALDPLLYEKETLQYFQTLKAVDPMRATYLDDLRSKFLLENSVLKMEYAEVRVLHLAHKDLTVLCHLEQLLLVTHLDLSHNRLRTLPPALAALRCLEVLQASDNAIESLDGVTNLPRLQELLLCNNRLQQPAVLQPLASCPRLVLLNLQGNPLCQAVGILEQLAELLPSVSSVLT
# Variants of: B1
# Details: with pgta_human RABGGTA
row,effect of a mutation on the interaction,Variant
1,disrupting interaction,H507R
